US20190338048A1
Values joined by “and” are separate entries in the source; they are usually repeats but may differ in a detail not shown here. Identical values can stand only once. Like-named read-outs stand apart in the source and are kept apart here.

Assays:
[1] = target: CR8071 lambda light chain L1 with E124R (SMCA design 2826); test: SMCA: four chains co-expressed, protein A, LC-MS
[2] = target: CR8071 lambda light chain L1 with E124R (SMCA design 2826); test: SMCA LC-MS
[3] = target: CR8071 lambda light chain L1 with Q38E (SMCA design 34); test: SMCA: four chains co-expressed, protein A, LC-MS
[4] = target: CR8071 lambda light chain L1 with Q38E (SMCA design 34); test: SMCA LC-MS
[5] = target: Design 2994 L1: CR8071 lambda light chain E124Q_T131K; test: SMCA, LC-MS
[6] = target: Design 2994 L1: CR8071 lambda light chain E124Q_T131K; test: SMCA: H1, L1, H2, L2 co-expressed in CHO-3E7, protein A, LC-MS
[7] = target: Design 2994 L2: SGN-CD19a kappa light chain Q124E_V133D; test: SMCA, LC-MS
[8] = target: Design 2994 L2: SGN-CD19a kappa light chain Q124E_V133D; test: SMCA: H1, L1, H2, L2 co-expressed in CHO-3E7, protein A, LC-MS
[9] = target: Design 3947 L2: SGN-CD19a kappa light chain S131K_S176K; test: SMCA: H1, L1, H2, L2 co-expressed, protein A, LC-MS
[10] = target: Design 3947 L2: SGN-CD19a kappa light chain S131K_S176K; test: as above; remark: listed apart in the source
[11] = target: Design 3947 L2: SGN-CD19a kappa light chain S131K_S176K; test: as above; remark: listed apart in the source
[12] = target: Design 3951 L2: SGN-CD19a kappa light chain S121K_S131K_S176K; test: as above
[13] = target: Design 3951 L2: SGN-CD19a kappa light chain S121K_S131K_S176K; test: as above; remark: listed apart in the source
[14] = target: Design 3951 L2: SGN-CD19a kappa light chain S121K_S131K_S176K; test: as above; remark: listed apart in the source
[15] = target: Design 3954 L2: SGN-CD19a kappa light chain S121K_S176E_T178E; test: as above
[16] = target: Design 3954 L2: SGN-CD19a kappa light chain S121K_S176E_T178E; test: as above; remark: listed apart in the source
[17] = target: Design 3954 L2: SGN-CD19a kappa light chain S121K_S176E_T178E; test: as above; remark: listed apart in the source
[18] = target: Design 3997 L1: CR8071 lambda light chain S122D_E124Q_T131R; test: SMCA, LC-MS
[19] = target: Design 3997 L1: CR8071 lambda light chain S122D_E124Q_T131R; test: SMCA: H1, L1, H2, L2 co-expressed in CHO-3E7, protein A, LC-MS
[20] = target: Design 3997 L2: SGN-CD19a kappa light chain S121K_V133I_S176D_T178E; test: SMCA, LC-MS
[21] = target: Design 3997 L2: SGN-CD19a kappa light chain S121K_V133I_S176D_T178E; test: SMCA: H1, L1, H2, L2 co-expressed in CHO-3E7, protein A, LC-MS
[22] = target: Design 4008 L2: SGN-CD19a kappa light chain Q124R_L135W_T178R; test: SMCA, LC-MS
[23] = target: Design 4010 L2: SGN-CD19a kappa light chain S131R_V133G_L135W_S176R; test: SMCA, LC-MS
[24] = target: Design 4040 L1: CR8071 lambda light chain K129T_S180E; test: SMCA, LC-MS
[25] = target: Design 4040 L1: CR8071 lambda light chain K129T_S180E; test: SMCA: H1, L1, H2, L2 co-expressed in CHO-3E7, protein A, LC-MS
[26] = target: Design 4040 L2: SGN-CD19a kappa light chain P44F_Q124K_T178R; test: SMCA, LC-MS
[27] = target: Design 4040 L2: SGN-CD19a kappa light chain P44F_Q124K_T178R; test: SMCA, LC-MS; remark: listed apart in the source
[28] = target: Design 4040 L2: SGN-CD19a kappa light chain P44F_Q124K_T178R; test: SMCA: H1, L1, H2, L2 co-expressed in CHO-3E7, protein A, LC-MS
[29] = target: Design 4320 L1: CR8071 lambda light chain T116F_K129T_V133D_S176F; test: SMCA, LC-MS
[30] = target: Design 4320 L1: CR8071 lambda light chain T116F_K129T_V133D_S176F; test: SMCA: H1, L1, H2, L2 co-expressed in CHO-3E7, protein A, LC-MS
[31] = target: Design 4320 L2: SGN-CD19a kappa light chain Q124K_L135A_T178R; test: SMCA, LC-MS
[32] = target: Designs 4008 and 4010 L1: CR8071 lambda light chain K129T_V133D; test: SMCA, LC-MS
[33] = target: Designs 4008 and 4010 L1: CR8071 lambda light chain K129T_V133D; test: SMCA: H1, L1, H2, L2 co-expressed in CHO-3E7, protein A, LC-MS
[34] = target: SGN-CD19a kappa light chain L2 with V133G_S176D (SMCA design 2188); test: SMCA: four chains co-expressed, protein A, LC-MS
[35] = target: SGN-CD19a kappa light chain L2 with V133G_S176D (SMCA design 2188); test: SMCA LC-MS
[36] = target: SGN-CD19a kappa light chain L2 with Q124E_Q160E_T180E (SMCA design 2826); test: SMCA: four chains co-expressed, protein A, LC-MS
[37] = target: SGN-CD19a kappa light chain L2 with Q124E_Q160E_T180E (SMCA design 2826); test: SMCA LC-MS
[38] = target: SGN-CD19a kappa light chain L2 with Q124E_Q160E_T180E (SMCA design 2826); test: SMCA LC-MS; remark: listed apart in the source
[39] = target: SGN-CD19a kappa light chain L2 with Q124E_Q160E_T180E (SMCA design 2826); test: SMCA: four chains co-expressed, protein A, LC-MS; remark: listed apart in the source
[40] = target: SGN-CD19a kappa light chain L2 S121K_Q124R_T178R (design 3967, Systems B and C); test: SMCA: H1, L1, H2, L2 co-expressed, protein A, LC-MS
[41] = target: SGN-CD19a kappa light chain L2 S121K_Q124R_T178R (design 3967, Systems B and C); test: as above; remark: listed apart in the source
[42] = target: SGN-CD19a kappa light chain L2 S121K_Q124R_T178R (design 3967, Systems B and C); test: as above; remark: listed apart in the source
[43] = target: SGN-CD19a kappa light chain Q124K_V133A_T178R (L2 of design 3109, systems B and C); test: SMCA LC-MS
[44] = target: SGN-CD19a kappa light chain Q124K_V133A_T178R (L2 of design 3109, systems B and C); test: SMCA LC-MS; remark: listed apart in the source
[45] = target: SGN-CD19a kappa light chain Q124K_V133A_T178R (L2 of design 3109, systems B and C); test: SMCA LC-MS; remark: listed apart in the source

CR8071 full-length heavy chain H1 with L143E_K145T (SMCA design 2826)
% H1L1 Pairing [1]: 27.8% | Change in % H1L1 Pairing with respect to wild type [2]: -40.3%

CR8071 full-length heavy chain H1 with Q39R (SMCA design 34)
% H1L1 Pairing [3]: 92.6% | Change in % H1L1 Pairing with respect to wild type [4]: 24.5%

Design 2994 H1: CR8071 heavy chain L143E_K145T_Q179E
Change in % H1L1 Pairing with respect to wild type [5]: -22.1% | % H1L1 Pairing [6]: 26.3%

Design 2994 H2: SGN-CD19a heavy chain L143K
Change in % H2L2 Pairing with respect to wild type [7]: 45% and 20.1% | % H2L2 Pairing [8]: 99.2% and 99.7%

Design 3947 H2: SGN-CD19a heavy chain K145T_S186E
Change in % H2L2 Pairing with respect to wild type [9]: 16.1% | % H2L2 Pairing [10]: 70.3% | % H2L2 Pairing [11]: 94.5% | Change in % H2L2 Pairing with respect to wild type [11]: 23.2%

Design 3951 H2: SGN-CD19a heavy chain K145T_S186E_K228D
Change in % H2L2 Pairing with respect to wild type [12]: 23.3% | % H2L2 Pairing [13]: 77.5% | % H2L2 Pairing [14]: 97.1% | Change in % H2L2 Pairing with respect to wild type [14]: 25.8%

Design 3954 H2: SGN-CD19a heavy chain S188K_K228D
Change in % H2L2 Pairing with respect to wild type [15]: 7.6% | % H2L2 Pairing [16]: 61.8% | % H2L2 Pairing [17]: 98.7% | Change in % H2L2 Pairing with respect to wild type [17]: 19.1%

Design 3997 H1: CR8071 heavy chain A125R_L143E_K145T_Q179E
Change in % H1L1 Pairing with respect to wild type [18]: 27.9% | % H1L1 Pairing [19]: 96%

Design 3997 H2: SGN-CD19a heavy chain S188K_K228D
Change in % H2L2 Pairing with respect to wild type [20]: 28.6% | % H2L2 Pairing [21]: 99.9%

Design 4008 H2: SGN-CD19a heavy chain L143E_K145T_Q179E
Change in % H2L2 Pairing with respect to wild type [22]: 33.3% and 38.4%

Design 4010 H2: SGN-CD19a heavy chain L124E_K145T_Q179E
Change in % H2L2 Pairing with respect to wild type [23]: 33.9% and 38.7%

Design 4040 H1: CR8071 heavy chain S186R
Change in % H1L1 Pairing with respect to wild type [24]: 30.6% | % H1L1 Pairing [25]: 98.7%

Design 4040 H2: SGN-CD19a heavy chain L45P_L143E_K145T_Q179E
Change in % H2L2 Pairing with respect to wild type [26]: 27.3% | Change in % H2L2 Pairing with respect to wild type [27]: 21.6% | % H2L2 Pairing [28]: 75.8% and 98.6%

Design 4320 H1: CR8071 heavy chain L143K_F174G
Change in % H1L1 Pairing with respect to wild type [29]: 14.3% | % H1L1 Pairing [30]: 96.6%

Design 4320 H2: SGN-CD19a heavy chain L143E_K145T_Q179E_V190F
Change in % H2L2 Pairing with respect to wild type [31]: 17.9% and 21.5%

Designs 4008 and 4010 H1: CR8071 heavy chain A139W_L143K
Change in % H1L1 Pairing with respect to wild type [32]: 17.3% and 17% | % H1L1 Pairing [33]: 99.6% and 99.3%

SGN-CD19a full-length heavy chain H2 with L124R (SMCA design 2188)
% H2L2 Pairing [34]: 92.9% | Change in % H2L2 Pairing with respect to wild type [35]: 38.7%

SGN-CD19a full-length heavy chain H2 with Q179K (SMCA design 2826)
% H2L2 Pairing [36]: 89.7% | Change in % H2L2 Pairing with respect to wild type [37]: 35.5% | Change in % H2L2 Pairing with respect to wild type [38]: 26.7% | % H2L2 Pairing [39]: 98%

SGN-CD19a heavy chain H2 L143E_K145T_Q179E_K228D (design 3967, Systems B and C)
Change in % H2L2 Pairing with respect to wild type [40]: 44.4% | % H2L2 Pairing [41]: 100% | Change in % H2L2 Pairing with respect to wild type [41]: 28.7% | % H2L2 Pairing [42]: 98.6%

SGN-CD19a heavy chain L124W_L143E_K145T_Q179E (H2 of design 3109, systems B and C)
% H2L2 Pairing [43]: 97.1% | Change in % H2L2 Pairing with respect to wild type [43]: 42.9% | Change in % H2L2 Pairing with respect to wild type [44]: 28.3% | % H2L2 Pairing [45]: 99.6%
